Test [1] addresses T1, human IL-21 (human, UniProt Q9HBE4 25-162, limits assumed). In words: cell-based or functional assay.
The target of the next test is T2, Peptide 4 of hIL-21 (human).
T2 construct: also called P4
T2 peptide: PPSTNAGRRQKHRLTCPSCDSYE
The test is described as follows: ELISA, biotinylated 2P2 on coated peptide. The protocol: (§1) To detect epitopes of 2P2 and 3A3, peptides consisting of different regions of hIL-21 were synthesized commercially and coated on an ELISA plate, followed by blocking of non-specific binding sites with 3% BSA in PBS. Biotinylated 2P2 or 3A3 were then added to the wells and developed with Streptavidin-HRP and TMB substrates.

Another test concerns the target T3, Peptide 5 of hIL-21 (human).
T3 construct: also called P5
T3 peptide: PPSTNAGRRQKHRLT
The test is described as follows: ELISA, biotinylated 2P2 on coated peptide. The protocol:
as §1
(In general: ELISA stands for enzyme-linked immunosorbent assay.)

In a further test the target is mIL21 (mouse, UniProt Q9ES17). The test is described as follows: ELISA: coated mIL21, biotinylated 2P2, Streptavidin-HRP/TMB, A450.
For another test, the target named is T4, Peptide 3 of hIL-21 (human).
T4 construct: also called P3
T4 peptide: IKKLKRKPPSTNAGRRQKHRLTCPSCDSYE
The test is described as follows: ELISA: coated Peptide 3, biotinylated 2P2, Streptavidin-HRP/TMB, A450. The protocol: as §1

A further test has as its target T5, Peptide 1 (P1, 30aa).
T5 construct: also called peptide 1 of hIL-21
The test is described as follows: peptide ELISA: coated peptide, biotinylated 2P2, Streptavidin-HRP/TMB, A450. The procedure:
as §1

Another test has as its target T6, Peptide 2 (P2).
T6 construct: also called peptide 2 of hIL-21; Peptide 2 (P2, 27aa)
The test is described as above. The protocol:
as §1

Test [2] deals with T1, human IL-21. The test is described as follows: SPR (ProtOn XPR36), biotinylated hIL21 immobilised on NLC chip, antibody in flow, triplicates. The procedure:
Triplicates SPR measurements were conducted on ProtOn XPR36 (Bio-rad). NLC chips (Bio-rad) were used to immobilise biotinylated hIL21 on ligand channels, followed by flowing through of various concentrations of mouse 2P2 or humanised 2P2.

Test [3] has as its target T1, human IL-21. The test is described as follows: SPR, immobilised mAb, IL-21 in flow; average of the five wells of Table 6 (unit from Table 6); average with range and SD of the five measurements. The protocol: Surface Plasma Resonance binding kinetics assay were performed on a Bio-rad XPR36 system by the direct amine coupling method. Briefly, a flow of mixture of EDC [N-ethyl-N′-(3-diethylamino-propyl) carbodiimide] and NHS (N-hydroxysuccinimide) was used to activate the cell surface of a GLC sensor chip before 25 μg/ml anti-IL-21 mAb was flowed through, then a shot flow of ethanolamine was used to block the remaining active sites on the cell surface. Afterwards, serial diluted solutions of IL-21 from 0 to 40 nM were flown over the cell surface to bind to the immobilized anti-IL-21 mAb molecules. Binding kinetics were performed at 25° C. with a flow rate of 30 μL/min, association time of 3 min and dissociation time of 6 min. The buffer consisted of Hepes, NaCl, tween20, and 1 mg/mL BSA at pH 7.4. The flow cell regeneration buffer between cycles was 15 mM phosphoric acid. Double references were used to process the sensorgrams. The binding curves were globally fit to the 1:1 Langmuir binding model.
In general terms: In SPR one partner is held on a chip, and binding of the other changes the refractive index at the surface.

Bounds are passed on as bounds.

T1 sequence (Q9HBE4 25-162 limits assumed): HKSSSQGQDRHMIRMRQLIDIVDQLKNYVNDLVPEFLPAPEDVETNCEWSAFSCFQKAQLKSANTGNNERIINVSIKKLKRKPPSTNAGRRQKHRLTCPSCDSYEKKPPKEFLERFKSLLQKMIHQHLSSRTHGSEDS
T6 sequence (peptide, as listed by the source): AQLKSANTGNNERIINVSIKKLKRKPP
T5 sequence (peptide, as listed by the source): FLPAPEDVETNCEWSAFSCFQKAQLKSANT

B1: monoclonal antibody 2P2 (antibody, V domains shown)
VH: EVQLQQSGADLVRSGASVKLSCTASGFNIKDYYIHWVKQRPEQGLELIGWIDPESGDTEYAPKFQVKATMTADTSSNTAYLQLSSLTSEDTAVYYCNDGSGYWGQGTTLTVSS
VL: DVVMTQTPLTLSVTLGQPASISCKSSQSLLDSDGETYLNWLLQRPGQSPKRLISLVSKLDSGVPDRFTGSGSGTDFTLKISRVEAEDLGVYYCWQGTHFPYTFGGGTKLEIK
notes: Mouse monoclonal antibody; it was detected with anti-mouse IgG in ELISA; also called mAb 2P2; m2P2
For the molecule B1, the “bioactivity of human IL-21 (proliferation of Ba/F3-hIL-21 R cells, [3H]-thymidine incorporation)” value in the test with human IL-21 [1] was > 10 fold. For the same molecule, the “hIL-21 mediated human B cell proliferation (CFSE dilution, flow cytometry)” value in the test with human IL-21 [1] is ~20 fold. For the same molecule, the “hIL-21 mediated human CD8 T cell activation (granzyme B/perforin double positive cells)” value in the test with human IL-21 [1] was > 10 fold. Further, the binding result in the test with Peptide 4 of hIL-21 is recorded as “binds”; with Peptide 5 of hIL-21, “binds”; in the test with mIL21, “no binding”; with Peptide 3 of hIL-21, “binds”; in the test with Peptide 1 (P1, 30aa), “no binding”; with Peptide 2 (P2), “no binding”. The figures for the dissociation constant Kd in the test with human IL-21 [2] and with human IL-21 [3] were 0.0201 nM and 3.33 nM, respectively. In the test with human IL-21 [2], the off-rate (koff) (commonly the rate constant with which the complex falls apart) was 0.000512 s⁻¹.

B2: humanized 2P2 antibody (antibody, V domains shown)
VH: QVQLVQSGAEVKKPGASVKVSCKASGFNIKDYYIHWVRQAPGQGLELIGWIDPESGDTNYAQKFQVKATMTRDTSISTAYMELSRLRSDDTAVYYCNDGSGYWGQGTTVTVSS
VL: DVVMTQSPLSLPVTLGQPASISCKSSQSLLDSDGETYLNWLQQRPGQSPRRLISLVSKLDSGVPDRFSGSGSGTDFTLKISRVEAEDVGVYYCWQGTHFPYTFGQGTKLEIK
notes: it was detected with anti-human IgG in ELISA; also called h2P2; humanised 2P2
As for B2, in the test with human IL-21 [2], binding was characterised by a dissociation constant (Kd) of 0.0305 nM and the dissociation rate constant (koff) came out at 0.00037 s⁻¹.

The values are drawn from patent US20190111148A1 (MONASH UNIVERSITY, published 2019).
